One block for each binder: values may come before it.
Columns and labels:
[1] = molecular target: T1, native mouse MET on living mouse cells (mouse, UniProt P16056 25-1379); experiment: cell-based or functional assay
[2] = molecular target: T2, native human MET on living human cells (human, UniProt P08581 25-1390); experiment: cell-based or functional assay
[3] = molecular target: T3, human MET-Fc chimeric protein (R&D Systems) (human, UniProt P08581 25-932); experiment: competition ELISA, hMET-Fc in solid phase, competitor 0.3 nM biotinylated hHGF
T3 construct: extracellular domain; bought (R&D Systems); also called hMET; not shown: Fc portion of human IgG1
T3 sequence (P08581 25-932, change not shown): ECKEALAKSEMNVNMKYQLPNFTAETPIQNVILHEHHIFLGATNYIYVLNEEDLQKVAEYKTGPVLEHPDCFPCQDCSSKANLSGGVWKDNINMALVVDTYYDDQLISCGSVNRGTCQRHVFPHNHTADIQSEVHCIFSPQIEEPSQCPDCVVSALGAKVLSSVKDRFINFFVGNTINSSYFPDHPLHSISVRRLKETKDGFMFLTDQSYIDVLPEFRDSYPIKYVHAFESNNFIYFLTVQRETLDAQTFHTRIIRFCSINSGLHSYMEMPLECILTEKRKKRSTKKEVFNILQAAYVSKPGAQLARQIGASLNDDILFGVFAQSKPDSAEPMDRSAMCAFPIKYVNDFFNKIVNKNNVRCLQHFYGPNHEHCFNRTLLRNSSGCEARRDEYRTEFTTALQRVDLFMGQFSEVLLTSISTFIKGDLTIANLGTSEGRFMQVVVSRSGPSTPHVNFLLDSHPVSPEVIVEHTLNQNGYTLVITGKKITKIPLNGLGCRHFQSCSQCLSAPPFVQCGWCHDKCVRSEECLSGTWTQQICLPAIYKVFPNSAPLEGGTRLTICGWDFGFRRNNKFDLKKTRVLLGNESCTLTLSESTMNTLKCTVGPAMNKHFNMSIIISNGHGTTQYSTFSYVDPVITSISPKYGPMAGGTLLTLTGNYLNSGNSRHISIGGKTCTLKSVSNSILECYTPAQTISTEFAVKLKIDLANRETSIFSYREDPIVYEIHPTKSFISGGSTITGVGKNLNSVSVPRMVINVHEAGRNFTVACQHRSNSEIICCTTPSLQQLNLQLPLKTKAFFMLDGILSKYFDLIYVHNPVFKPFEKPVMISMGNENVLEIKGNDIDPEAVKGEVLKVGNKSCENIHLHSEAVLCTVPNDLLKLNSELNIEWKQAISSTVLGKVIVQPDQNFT
Description: (§1) To investigate along this line, we tested the competition between mAbs and HGF by ELISA. Recombinant human and mouse HGF (R&D Systems) were biotinylated at the N-terminus using NHS-LC-biotin (Thermo Scientific). MET-Fc protein, either human or mouse (R&D Systems), was immobilized in solid phase and then exposed to 0.3 nM biotinylated HGF, either human or mouse, in the presence of increasing concentrations of antibodies (0-120 nM).
(§2) A MET-Fc chimeric protein (either human or mouse) was immobilized in solid phase and exposed to a fixed concentration of biotinylated HGF (either human or mouse), in the presence of increasing concentrations of antibodies. […] Antibody-HGF competition is expressed as IC₅₀ (the concentration that achieves 50% competition) and IMAX (the maximum % competition reached at saturation).

[4] = molecular target: T4, mouse MET-Fc chimeric protein (R&D Systems) (mouse, UniProt P16056 25-929, limits assumed); experiment: competition ELISA, mMET-Fc in solid phase, competitor 0.3 nM biotinylated mHGF
T4 construct: bought (R&D Systems); also called mMET; not shown: Fc
Description: as §1, §2

[5] = molecular target: T1, native mouse MET on living mouse cells; experiment: flow cytometry, MLP29 cells
Description: (§3) We also analysed whether chimeric anti-MET antibodies bound to native human and mouse MET in living cells. […] Antibody binding to cells was analysed by flow cytometry using phycoerythrin-conjugated anti-human IgG1 antibodies (eBioscience) and a CyAn ADP analyser (Beckman Coulter). As a positive control for human MET binding, we used a commercial mouse anti-human MET antibody (R&D Systems) and phycoerythrin-conjugated anti-mouse IgG1 antibodies (eBioscience). As a positive control for mouse MET binding we used a commercial goat anti-mouse MET antibody (R&D Systems) and phycoerythrin-conjugated anti-goat IgG1 antibodies (eBioscience). […] Consistent with the data obtained in ELISA, maximal binding (EMAX) varied depending on antibody, but was similar in human and mouse cells.

[6] = molecular target: T2, native human MET on living human cells; experiment: flow cytometry, A549 cells
Description: as §3

[7] = molecular target: T1, native mouse MET on living mouse cells; experiment: cell-based or functional assay; remark: listed apart in the source
[8] = molecular target: T2, native human MET on living human cells; experiment: cell-based or functional assay; remark: listed apart in the source
[9] = molecular target: T5, human MET extracellular domain (ECD) (human, UniProt P08581 25-932); experiment: ELISA, periplasmic Fab on MET ECD
T5 construct: range 1-932; recombinant ECD; also called hMET; human MET ECD
T5 sequence (P08581 25-932 limits assumed, form in doubt): as the sequence (P08581 25-932, change not shown) above
Description: Fab-expressing phages from the libraries described above were produced according to standard phage display protocols. For selection, phages were first adsorbed to immobilized recombinant human MET ECD, washed, and then eluted using trypsin. After two cycles of selection with human MET ECD, two other cycles were performed in the same fashion using mouse MET ECD. In parallel, we also selected phages alternating a human MET ECD cycle with a mouse MET ECD cycle, for a total of four cycles. Phages selected by the two approaches were pooled together and then used to infect TG1 E. coli. Individual colonies were isolated and secretion of Fabs was induced using IPTG (Fermentas). The Fab-containing periplasmic fraction of bacteria was collected and tested for its ability to bind human and mouse MET ECD by Surface Plasmon Resonance (SPR). Human or mouse MET ECD was immobilized on a CM-5 chip using amine coupling in sodium acetate buffer (GE Healthcare). The Fab-containing periplasmic extracts were loaded into a BIACORE 3000 apparatus (GE Healthcare) with a flow rate of 30 μl/min. The Fab off-rates (koff) were measured over a two minute period. Binding of Fabs to human and mouse MET was further characterized by ELISA using MET ECD in solid phase and periplasmic crude extract in solution.
TABLE 7 Fabs binding to both human MET (hMET) and mouse MET (mMET). Fabs are grouped in families based on their VH CDR3 sequence. Binding of Fabs to human and mouse MET ECD was determined by Surface Plasmon Resonance (SPR) and by ELISA. SPR values represent the koff (s⁻¹). ELISA values represent the Optical Density (OD) at 450 nm (AU, arbitrary units). Both SPR and ELISA were performed using crude periplasmic extracts. Fab concentration in the extract was not determined. Values are the mean of three independent measurements.

T2 sequence (P08581 25-1390): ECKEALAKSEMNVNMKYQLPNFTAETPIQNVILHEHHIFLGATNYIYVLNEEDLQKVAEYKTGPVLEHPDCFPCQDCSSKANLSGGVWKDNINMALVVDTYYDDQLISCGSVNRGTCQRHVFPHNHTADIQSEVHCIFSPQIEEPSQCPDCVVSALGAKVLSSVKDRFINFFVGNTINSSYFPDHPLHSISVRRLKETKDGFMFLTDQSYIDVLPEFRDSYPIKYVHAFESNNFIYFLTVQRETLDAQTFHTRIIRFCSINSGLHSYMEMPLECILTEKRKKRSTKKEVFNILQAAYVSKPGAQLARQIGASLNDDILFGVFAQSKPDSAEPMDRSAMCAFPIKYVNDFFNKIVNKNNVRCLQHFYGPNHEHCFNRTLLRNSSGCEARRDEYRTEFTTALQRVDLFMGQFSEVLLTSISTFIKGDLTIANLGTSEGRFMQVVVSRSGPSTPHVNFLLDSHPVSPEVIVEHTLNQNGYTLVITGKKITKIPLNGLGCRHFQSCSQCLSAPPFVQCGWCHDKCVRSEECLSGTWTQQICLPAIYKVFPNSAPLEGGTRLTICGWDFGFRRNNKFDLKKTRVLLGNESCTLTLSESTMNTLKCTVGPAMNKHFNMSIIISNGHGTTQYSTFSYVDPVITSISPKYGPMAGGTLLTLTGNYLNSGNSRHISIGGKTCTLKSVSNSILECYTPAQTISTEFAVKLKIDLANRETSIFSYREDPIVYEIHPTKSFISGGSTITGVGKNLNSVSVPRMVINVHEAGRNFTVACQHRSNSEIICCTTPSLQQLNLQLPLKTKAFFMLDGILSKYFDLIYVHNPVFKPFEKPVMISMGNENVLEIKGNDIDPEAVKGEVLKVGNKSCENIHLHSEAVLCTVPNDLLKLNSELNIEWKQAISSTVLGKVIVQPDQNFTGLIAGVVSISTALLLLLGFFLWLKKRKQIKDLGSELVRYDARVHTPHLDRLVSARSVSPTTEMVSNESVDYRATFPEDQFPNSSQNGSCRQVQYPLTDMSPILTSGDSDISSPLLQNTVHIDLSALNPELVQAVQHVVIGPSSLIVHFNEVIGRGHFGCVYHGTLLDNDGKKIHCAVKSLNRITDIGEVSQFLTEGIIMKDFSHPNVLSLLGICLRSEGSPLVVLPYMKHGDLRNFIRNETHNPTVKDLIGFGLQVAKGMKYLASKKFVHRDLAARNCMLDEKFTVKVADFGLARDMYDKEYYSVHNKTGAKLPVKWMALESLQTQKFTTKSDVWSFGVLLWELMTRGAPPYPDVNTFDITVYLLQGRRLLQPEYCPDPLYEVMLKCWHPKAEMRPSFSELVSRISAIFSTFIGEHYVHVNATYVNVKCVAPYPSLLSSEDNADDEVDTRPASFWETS

B1: chimeric llama-human IgG1 mAb 76G7 (antibody, V domains shown)
VH: QVQLVESGGNLVQPGGSLRLSCAASGFTFSNYYMSWVRQAPGKGLEWVSDIYSDGSTTWYSDSVKGRFTISRDNAKNTLSLQMNSLKSEDTAVYYCARVKIYPGGYDAWGQGTQVTVSS
VL: QAGLTQPPSVSGSPGKTVTISCAGNSSDVGYGNYVSWYQQFPGMAPKLLIYLVNKRASGITDRFSGSKSGNTASLTISGLQSEDEADYYCASYTGSNNIVFGGGTHLTVL
cell scattering score, MLP29, 0.001 nM [1]: 0 score 0-4 | cell scattering score, MLP29, 0.004 nM [1]: 0 score 0-4 | cell scattering score, MLP29, 0.012 nM [1]: 0 score 0-4 | cell scattering score, MLP29, 0.037 nM [1]: 0 score 0-4 | cell scattering score, MLP29, 0.111 nM [1]: 0 score 0-4 | cell scattering score, MLP29, 0.333 nM [1]: 0 score 0-4 | cell scattering score, MLP29, 1.000 nM [1]: 1 score 0-4 | cell scattering score, MLP29, 3.000 nM [1]: 2 score 0-4 | cell scattering score, MLP29, 9.000 nM [1]: 3 score 0-4 | cell scattering score, HPAF-II, 0.001 nM [2]: 0 score 0-4 | cell scattering score, HPAF-II, 0.004 nM [2]: 0 score 0-4 | cell scattering score, HPAF-II, 0.012 nM [2]: 0 score 0-4 | cell scattering score, HPAF-II, 0.037 nM [2]: 0 score 0-4 | cell scattering score, HPAF-II, 0.111 nM [2]: 0 score 0-4 | cell scattering score, HPAF-II, 0.333 nM [2]: 0 score 0-4 | cell scattering score, HPAF-II, 1.000 nM [2]: 1 score 0-4 | cell scattering score, HPAF-II, 3.000 nM [2]: 2 score 0-4 | cell scattering score, HPAF-II, 9.000 nM [2]: 3 score 0-4 | IMAX (maximum % competition) [3]: 69.4% | IMAX (maximum % competition) [4]: 62.5% | EMAX (% relative to control) [5]: 115% | EMAX (% relative to control) [6]: 121% | protection from staurosporine, viability EC50, MLP29 [7]: 30.1 nM | protection from staurosporine, viability EMAX, MLP29 [7]: 50.2% | protection from staurosporine, viability EC50, MCF10A [8]: 25.4 nM | protection from staurosporine, viability EMAX, MCF10A [8]: 51.9%

B3: recombinant mouse HGF (R&D Systems) (ligand, UniProt Q08048 33-728, looked up)
chain: QKKRRNTLHEFKKSAKTTLTKEDPLLKIKTKKVNSADECANRCIRNRGFTFTCKAFVFDKSRKRCYWYPFNSMSSGVKKGFGHEFDLYENKDYIRNCIIGKGGSYKGTVSITKSGIKCQPWNSMIPHEHSFLPSSYRGKDLQENYCRNPRGEEGGPWCFTSNPEVRYEVCDIPQCSEVECMTCNGESYRGPMDHTESGKTCQRWDQQTPHRHKFLPERYPDKGFDDNYCRNPDGKPRPWCYTLDPDTPWEYCAIKTCAHSAVNETDVPMETTECIQGQGEGYRGTSNTIWNGIPCQRWDSQYPHKHDITPENFKCKDLRENYCRNPDGAESPWCFTTDPNIRVGYCSQIPKCDVSSGQDCYRGNGKNYMGNLSKTRSGLTCSMWDKNMEDLHRHIFWEPDASKLNKNYCRNPDDDAHGPWCYTGNPLIPWDYCPISRCEGDTTPTIVNLDHPVISCAKTKQLRVVNGIPTQTTVGWMVSLKYRNKHICGGSLIKESWVLTARQCFPARNKDLKDYEAWLGIHDVHERGEEKRKQILNISQLVYGPEGSDLVLLKLARPAILDNFVSTIDLPSYGCTIPEKTTCSIYGWGYTGLINADGLLRVAHLYIMGNEKCSQHHQGKVTLNESELCAGAEKIGSGPCEGDYGGPLICEQHKMRMVLGVIVPGRGCAIPNRPGIFVRVAYYAKWIHKVILTYKL
modifications: biotinylated at the N-terminus using NHS-LC-biotin in the competition ELISA only
cell scattering score, MLP29, 0.001 nM [1]: 0 score 0-4 | cell scattering score, MLP29, 0.004 nM [1]: 1 score 0-4 | cell scattering score, MLP29, 0.012 nM [1]: 2 score 0-4 | cell scattering score, MLP29, 0.037 nM [1]: 3 score 0-4 | cell scattering score, MLP29, 0.111 nM [1]: 4 score 0-4 | cell scattering score, MLP29, 0.333 nM [1]: 4 score 0-4 | cell scattering score, MLP29, 1.000 nM [1]: 4 score 0-4 | cell scattering score, MLP29, 3.000 nM [1]: 4 score 0-4 | cell scattering score, MLP29, 9.000 nM [1]: 4 score 0-4 | protection from staurosporine, viability EC50, MLP29 [7]: 5.35 nM | protection from staurosporine, viability EMAX, MLP29 [7]: 58.6%

More lines, main results first:

cell scattering score, MLP29, 0.001 nM [1]: 0 score 0-4 | cell scattering score, MLP29, 0.004 nM [1]: 0 score 0-4 | cell scattering score, MLP29, 0.012 nM [1]: 0 score 0-4 | cell scattering score, MLP29, 0.037 nM [1]: 1 score 0-4 | cell scattering score, MLP29, 0.111 nM [1]: 2 score 0-4 | cell scattering score, MLP29, 0.333 nM [1]: 3 score 0-4 | cell scattering score, MLP29, 1.000 nM [1]: 3 score 0-4 | cell scattering score, MLP29, 3.000 nM [1]: 4 score 0-4 | cell scattering score, MLP29, 9.000 nM [1]: 4 score 0-4 | cell scattering score, HPAF-II, 0.001 nM [2]: 0 score 0-4 | cell scattering score, HPAF-II, 0.004 nM [2]: 0 score 0-4 | cell scattering score, HPAF-II, 0.012 nM [2]: 0 score 0-4 | cell scattering score, HPAF-II, 0.037 nM [2]: 1 score 0-4 | cell scattering score, HPAF-II, 0.111 nM [2]: 2 score 0-4 | cell scattering score, HPAF-II, 0.333 nM [2]: 3 score 0-4 | cell scattering score, HPAF-II, 1.000 nM [2]: 3 score 0-4 | cell scattering score, HPAF-II, 3.000 nM [2]: 4 score 0-4 | cell scattering score, HPAF-II, 9.000 nM [2]: 4 score 0-4 | IMAX (maximum % competition) [3]: 76.9% | IMAX (maximum % competition) [4]: 71.5% | EMAX (% relative to control) [5]: 73.8% | EMAX (% relative to control) [6]: 85.7%
B2: chimeric llama-human IgG1 mAb 74C8 (antibody, V domains shown)
VH: EVQLVESGGGLVQPGGSLRLSCAASGFTFRNYHMSWVRQVPGKGFEWISDINSAGGSTYYADSVKGRFTISRDNAKNTLYLEMNSLKPEDTALYYCARVNVWGVNYWGKGTLVSVSS
VL: QTVVTQEPSLSVSPGGTVTLTCGLSSGSVTTSNYPGWFQQTPGQAPRTLIYNTNSRHSGVPSRFSGSISGNKAALTITGAQPEDEADYYCSLYPGSYTNVFGGGTHLTVL
protection from staurosporine, viability EC50, MLP29 [7]: > 32 nM | protection from staurosporine, viability EMAX, MLP29 [7]: 37.5% | protection from staurosporine, viability EC50, MCF10A [8]: > 32 nM | protection from staurosporine, viability EMAX, MCF10A [8]: 41.7%

cell scattering score, MLP29, 0.001 nM [1]: 0 score 0-4 | cell scattering score, MLP29, 0.004 nM [1]: 0 score 0-4 | cell scattering score, MLP29, 0.012 nM [1]: 0 score 0-4 | cell scattering score, MLP29, 0.037 nM [1]: 0 score 0-4 | cell scattering score, MLP29, 0.111 nM [1]: 0 score 0-4 | cell scattering score, MLP29, 0.333 nM [1]: 1 score 0-4 | cell scattering score, MLP29, 1.000 nM [1]: 2 score 0-4 | cell scattering score, MLP29, 3.000 nM [1]: 2 score 0-4 | cell scattering score, MLP29, 9.000 nM [1]: 3 score 0-4 | cell scattering score, HPAF-II, 0.001 nM [2]: 0 score 0-4 | cell scattering score, HPAF-II, 0.004 nM [2]: 0 score 0-4 | cell scattering score, HPAF-II, 0.012 nM [2]: 0 score 0-4 | cell scattering score, HPAF-II, 0.037 nM [2]: 0 score 0-4 | cell scattering score, HPAF-II, 0.111 nM [2]: 0 score 0-4 | cell scattering score, HPAF-II, 0.333 nM [2]: 1 score 0-4 | cell scattering score, HPAF-II, 1.000 nM [2]: 2 score 0-4 | cell scattering score, HPAF-II, 3.000 nM [2]: 2 score 0-4 | cell scattering score, HPAF-II, 9.000 nM [2]: 3 score 0-4 | IMAX (maximum % competition) [3]: 51.4% | IMAX (maximum % competition) [4]: 50.7% | EMAX (% relative to control) [5]: 121% | EMAX (% relative to control) [6]: 110%
B4: chimeric llama-human IgG1 mAb 71G12 (antibody, V domains shown)
VH: QVQLQESGGDLVQPGGSLRVSCVVSGFTFSRYYMSWVRQAPGKGLEWVSSIDSYGYSTYYTDSVKGRFTISRDNAKNTLYLQMNSLKPEDTALYYCARAKTTWSYDYWGQGTQVTVSS
VL: EIVLTQSPSSVTASVGGKVTINCKSSQSVFIASNQKTYLNWYQQRPGQSPRLVISYASTRESGIPDRFSGSGSTTDFTLTISSVQPEDAAVYYCQQAYSHPTFGQGTKVELK
protection from staurosporine, viability EC50, MLP29 [7]: > 32 nM | protection from staurosporine, viability EMAX, MLP29 [7]: 39.7% | protection from staurosporine, viability EC50, MCF10A [8]: > 32 nM | protection from staurosporine, viability EMAX, MCF10A [8]: 39.4%

ELISA OD450 [9]: 0.45 AU
B5: Fab 71G12 (Fab, V domains shown)
VH: B4 VH
VL: B4 VL
notes: llama Fab (VH-CH1, kappa VL-CL) with MYC flag, crude periplasmic extract

From patent publication US20210024639A1 (AGOMAB THERAPEUTICS, published 2021)
